This is an account of results in patent US7732568B2, “Methods for preventing and treating Alzheimer's disease” (AFFIRIS Forschungs-und Entwicklungs GmbH, priority 2003, dated 2010).

The test system of assay [1] is biotinylated DAEFRH-specific mAb. Nature of the assay: ELISA with peptide libraries: detection of mimotopes by the DAEFRH-specific mAb. Type of assay: binding, mice. The following applies: mimotopes from peptide libraries 1, 2 and 3. On the procedure: The ELISA with each of the peptide libraries have been carried out following standard protocols:
The peptide library is dissolved in 100% DMSO (final concentration 10 mg/ml).
The peptide solution is further diluted in PBS.
The peptide mixture is coated overnight (4° C.) onto ELISA plates (Nunc Maxisorp, Germany), starting with 500 μg/well, and titrated to 100 ng/well.
The plates are washed 3× times with PBS/Tween 20 (0.1% v/v).
The plates are blocked with PBS/BSA (2 h at room temperature).
The plates are washed 3× times with PBS/Tween.
The plates are incubated with biotinylated DAEFRH-specific mAb (DAEFRH sequence disclosed as SEQ ID NO: 1) (10 μg/ml in PBS) for 4 h at room temperature.
The plates are incubated with streptavidin-horseradish-peroxidase (30 min at room temperature).
The plates are washed 5× times with PBS/Tween.
The plates are incubated with ABTS+H2O2 (0.1% w/v; 10 to 45 min) and the reaction is stopped with citric acid followed by photometric evaluation (wavelength 405 nm).

For assay [2], the target named is DAEFRH-specific monoclonal antibody (mAb) produced according to example 1. Nature of the assay: competition ELISA: soluble peptide vs plate-bound DAEFRH-C-BSA for biotinylated mAb, FIG. 3. On the technique in general: In an ELISA, binding on a coated surface is turned into a signal by an enzyme label.
The target is the same in assay [3]. Briefly: competition ELISA: soluble peptide vs plate-bound DAEFRH-C-BSA for biotinylated mAb, FIG. 2.
Assay [4] has the same target. Briefly: competition ELISA: soluble peptide vs plate-bound DAEFRH-C-BSA for biotinylated mAb, FIG. 4.
Assay [5] shares this target. Nature of the assay: competition ELISA: soluble peptide vs plate-bound DAEFRH-C-BSA for biotinylated mAb, FIG. 5.

For DIDYHR, the “detection by the monoclonal antibody produced according to example 1” value (“detection” for short) in assay [1] was “can be detected”.
DIDYRR [DLDYRR (SEQ ID NO: 97)]: the “detection” value in assay [1] is on record as “can be detected”.
Same read-out and setting: for DLDYHR the value was “can be detected”; for DLDYRR [DLDYRR (SEQ ID NO: 98)], “can be detected”.
Still for that read-out and setting: for DVDYHR the value was “can be detected”; for DVDYRR, “can be detected”.
EIDYHR: in assay [1], the “detection” value was “can be detected”.
On the same count and under the same terms, then ELDYHR, with “can be detected”; and EVDYHR, with “can be detected”.
The term IC50 denotes the concentration needed to halve the response being measured. In assay [2], SFEFRGC [Peptide 3009 SFEFRG] yielded an IC50 below 5 µg/mL.
DKELRIC [Peptide 3001 DKELRI]: the IC50 in assay [3] is below 0.5 µg/mL.
On to YAEFRGC [Peptide 3005 YAEFRG], for which the IC50 in assay [3] was above 0.5 µg/mL.
SWEFRTC [Peptide 4002 SWEFRT] had an IC50 in assay [4] below 0.4 µg/mL.
DRELKIC [Peptide 1237 DRELKI] registered a concentration for half-maximal inhibition (IC50) in assay [5] above 5 µg/mL.
Still for that read-out and setting: for DRELRIC [Peptide 1235 DRELRI] the value was below 0.5 µg/mL; for DWEFRDAC [Peptide 1241 DWEFRDA], below 0.5 µg/mL.
In turn, ELEFRGC [Peptide 3008 ELEFRG] came in with a half-inhibitory concentration (IC50) in assay [2] below 5 µg/mL.
On to EYEFRGC [Peptide 1239 EYEFRG], for which, in assay [5], the IC50 was above 0.5 µg/mL.
Regarding EAEFRGC [Peptide 3006 EAEFRG], the IC50 in assay [3] was below 0.5 µg/mL.
As to DKELKIC [Peptide 1236 DKELKI], in assay [5], the IC50 is above 5 µg/mL.
On the same count and under the same terms, then DKELRC [Peptide 1238 DKELR], with below 0.5 µg/mL.
DWELRIC [Peptide 3002 DWELRI] returned an IC50 in assay [3] above 0.5 µg/mL.
